Experimental data: patent US11629364B2, “Methods for synthesizing anticoagulant polysaccharides” (OPTIMVIA, LLC, priority 2019, dated 2023)

Assay: NST activity: N-sulfated products detected by SAX-HPLC after lyase digestion
Format: biochemical
Settings: PNS or NCS as sulfo donor, N-deacetylated heparosan acceptor, 37° C. overnight
Method: A study was conducted in accordance with embodiments of the present disclosure to confirm NST activity of enzymes comprising the amino acid sequence of SEQ ID NO: 2, SEQ ID NO: 4, SEQ ID NO: 6, SEQ ID NO: 8, SEQ ID NO: 10, or SEQ ID NO: 12 by detecting the presence of N-sulfated polysaccharide products formed as a result of their sulfotransfer reaction, using mass spectrometry (MS). Each engineered enzyme was purified according to the procedure of Example 1. Sulfotransferase activity was monitored in 100 μL reactions containing 50 μM of enzyme. To each purified protein solution, 20 mg of an aryl sulfate compound (either PNS or NCS) was dissolved in 2 mL of reaction buffer (50 mM IVIES pH 7.0, 2 mM CaCl2)), added to the protein solution, and incubated at 37° C. for 10 min. 2.5 mL of 2 mg/mL solution of N-deacetylated heparosan was added to protein/donor solution and incubated overnight at 37° C. The N-deacetylated heparosan was synthesized according to the protocol described in Balagurunathan, K. et al (eds.) (2015), Glycosaminoglycans: Chemistry and Biology, Methods in Molecular Biology, vol. 1229, DOI 10.1007/978-1-4939-1714-3_2, ©Springer Science+Business Media, New York, pp. 11-19 (section 3.1). To purify the N-sulfated product, the incubated reaction mixture was centrifuged the following day at 5,000×g for 10 min. The filter was washed once with 2 mL water, and centrifuged again. The filtrate was added to a 1K MWCO Dialysis membrane, dialyzed for 2 days in Milli-Q water, with water changes at 1 h, 2 h, 8 h, 16 h, 32 h, and then lyophilized.
The lyophilized N-sulfated products from each reaction were subsequently digested with a mixture of three carbon-oxygen lyases comprising the amino acid sequences of SEQ ID NO: 30, SEQ ID NO: 31, and SEQ ID NO: 32, which catalyze the β-eliminative cleavage of heparosan-based polysaccharides. Such lyases are available from New England Biolabs, among other chemical and biological commercial entities. 1 μL of each lyase was incubated with 50 μg of the lyophilized sulfated polysaccharide product and the provided digestion buffer, and incubated over 24 hours according to the packaged instructions provided by New England Biolabs with each lyase. After digestion, the lyase enzymes were inactivated by heating to 100° C. for 5 minutes. Samples were centrifuged at 14,000 rpm for 30 minutes before introduction to a strong anion exchange, high performance liquid chromatography (SAX) analysis. SAX analysis was performed on a Dionex Ultimate 3000 LC system interface. Separation was carried out on a 4.6×250 mm Waters Spherisorb analytical column with 5.0 μm particle size at 45° C. Mobile phase solution A was 2.5 mM sodium phosphate, pH 3.5, while mobile phase solution B was 2.5 mM sodium phosphate, pH 3.5, and 1.2 M Sodium perchlorate. After each sample was loaded onto the column, mobile phase solutions were applied to the column at a ratio of 98% mobile phase solution A and 2% mobile phase solution B for five minutes at a flow rate of 1.4 mL/min. After five minutes, a linear gradient of increasing mobile phase solution B was applied until the ratio of mobile phase solution A to mobile phase solution B was 50:50.

Molecule	NST sulfotransferase activity with aryl sulfate compounds
SEQ ID NO: 2: engineered aryl sulfate-dependent NST enzyme, mutant of N-sulfotransferase domain of human NDST (protein, Amino acid sequence encoding for engineered arylsulfate-dependent N-sulfotransferase variant 1, engineered aryl sulfate-dependent NST enzyme, mutant of N-sulfotransferase domain of human NDST) MSEEKDPLWQDPCEDKRHKDIWSKEKTCDRFPKLLIIGPQKTGAWALYHFLGMHPDLSSNYPSSETHGSIQFFNGHNYHKGIDWYMEFFPIPSNTTSDFYFEKSANYFDSEVAPRRAAALLPKAKVLTILINPADRAYSWYQHQRAHDDPVALKYTFHEVITAGSDASSKLRALQNRCLVPGWYATHIERWLSAYHANQILVLDGKLLRTEPAKVMDMVQKFLGVTNTIDYHKTLAFDPKKGFWCQLLEGGKTKCLGKSHGRKYPEMDLDSRAFLKDYYRDHNIELSKLLYKMGQTLPTWLREDLQNTR	activity with NCS only
SEQ ID NO: 4: engineered aryl sulfate-dependent NST enzyme, mutant of N-sulfotransferase domain of human NDST (protein, Amino acid sequence encoding for engineered arylsulfate-dependent N-sulfotransferase variant 2, engineered aryl sulfate-dependent NST enzyme, mutant of N-sulfotransferase domain of human NDST) MSEEKDPLWQDPCEDKRHKDIWSKEKTCDRFPKLLIIGPSKTGAFLLTHFLGMHPDLSSNYPSSETGHSIQFFNGHNYHKGIDWYMEFFPIPSNTTSDFYFETSSNYFDSEVAPRRAAALLPKAKVLTILINPADRAYSWYQHQRAHDDPVALKYTFHEVITAGSDASSKLRALQNRCLVPGWYATHIERWLSAYHANQILVLDGKLLRTEPAKVMDMVQKFLGVTNTIDYHKTLAFDPKKGFWCQLLEGGKTKCHGKRWGRKYPEMDLDSRAFLKDYYRDHNIELSKLLYKMGQTLPTWLREDLQNTR	activity with NCS only
SEQ ID NO: 10: engineered aryl sulfate-dependent NST enzyme, mutant of N-sulfotransferase domain of human NDST (protein, Amino acid sequence encoding for engineered arylsulfate-dependent N-sulfotransferase variant 5, engineered aryl sulfate-dependent NST enzyme, mutant of N-sulfotransferase domain of human NDST) MSEEKDPLWQDPCEDKRHKDIWSKEKTCDRFPKLLIIGPHKTGVHALYLFLGMHPDLSSNYPSSETGNHIGFFGGHNYHKGIDWYMEFFPIPSNTTSDFYFEKSAWYFDSEVAPRRAAALLPKAKVLTILINPADRAYSWYQHQRAHDDPVALKYTFHEVITAGSDASSKLRALQNRCLVPGWYATHIERWLSAYHANQILVLDGKLLRTEPAKVMDMVQKFLGVTNTIDYHKTLAFDPKKGFWCQLLEGGKTKCLGKSVGRKYPEMDLDSRAFLKDYYRDHNIELSKLLYKMGQTLPTWLREDLQNTR	activity with NCS only
SEQ ID NO: 12: engineered aryl sulfate-dependent NST enzyme, mutant of N-sulfotransferase domain of human NDST (protein, Amino acid sequence encoding for engineered arylsulfate-dependent N-sulfotransferase variant 6, engineered aryl sulfate-dependent NST enzyme, mutant of N-sulfotransferase domain of human NDST) MSEEKDPLWQDPCEDKRHKDIWSKEKTCDRFPKLLIIGPAKTGAWLLHHFLGMHPDLSSNYPSSETHSSIQFFNGHNYHKGIDWYMEFFPIPSNTTSDFYFETSANYFDSEVAPRRAAALLPKAKVLTILINPADRAYSWYQHQRAHDDPVALKYTFHEVITAGSDASSKLRALQNRCLVPGWYATHIERWLSAYHANQILVLDGKLLRTEPAKVMDMVQKFLGVTNTIDYHKTLAFDPKKGFWCQLLEGGKTKCAHKGLGRKYPEMDLDSRAFLKDYYRDHNIELSKLLYKMGQTLPTWLREDLQNTR	activity with PNS only

Assay: 6OST activity: 6-O sulfated products detected by LCMS after lyase digestion
Format: biochemical
Settings: procedures of Example 4; expected
Method: A study was conducted in accordance with embodiments of the present disclosure to confirm 6OST activity of enzymes comprising the amino acid sequence of SEQ ID NO: 18, SEQ ID NO: 20, or SEQ ID NO: 22 by detecting the presence of 6-O sulfated polysaccharide products as a result of their sulfotransfer reaction, using a similar LCMS procedure as in Example 3, except that the sulfo acceptor polysaccharide was prepared by chemically 6-O desulfating commercially available heparin (CAS code: 9041-08-1, available from Millipore Sigma), according to the procedure provided by Kariya, Y., et al., (2000) J. Biol. Chem. 275 (34):25949-25958).

Molecule	6OST activity: N,2,6-HS products by MS
SEQ ID NO: 59: full-length mutant of isoform 3 of the mouse 6OST enzyme, SEQ ID NO: 18 mutations (protein, Amino acid sequence encoding for engineered arylsulfate-dependent 6-O-sulfotransferase variant 12) MDERFNKWLLTPVLTLLFVVIMYQYVSPSCTSSCTNFGEQLRSGEARPPAVPSPARRAQAPLDEWERRPQLPPPPRGPPEGSRGVAAPEDEDEDPGDPEEEEEEEEEEPDPEAPENGSLPRFVPRFNFTLKDLTRFVDFNIKGRDVIVFLHIGHTGGTTFGRHLVKNIRLEQPCSCKAGQKKCTCHRPGKKETWLFSRFSTGWSCGTNADWTELTNCVPAIMEKKDCPRNHSHTRNFYYITMLRDPVSRYLGGWKHHQRGGTNKTSLHMCDGRSPTPDELPTCYPGDDWSGVSLREFMDCSYNLANNRQVRMLADLSLVGCYNLTFMNESERNTILLQSAKNNLKNMAFFGLTEFQRKTQFLFERTFNLKFISPFTQVNITRASNVDINDGARQHIEELNFLDMQLYEYAKDLFQQRYHHTKQLEHQRDRQKRREERRLQREHRAHRWPKEDRAMEGTVTEDYNSQVVRW	confirm the presence of N,2,6-HS products
SEQ ID NO: 60: full-length mutant of isoform 3 of the mouse 6OST enzyme, SEQ ID NO: 20 mutations (protein, Amino acid sequence encoding for engineered arylsulfate-dependent 6-O-sulfotransferase variant 13) MDERFNKWLLTPVLTLLFVVIMYQYVSPSCTSSCTNFGEQLRSGEARPPAVPSPARRAQAPLDEWERRPQLPPPPRGPPEGSRGVAAPEDEDEDPGDPEEEEEEEEEEPDPEAPENGSLPRFVPRFNFTLKDLTRFVDFNIKGRDVIVFLHIGHTGGTTFGRHLVKNIRLEQPCSCKAGQKKCTCHRPGKKETWLFSRFSTGWSCGTRADWTELTNCVPAIMEKKDCPRNHSHTRNFYYITMLRDPVSRYLSHWKHTQRGGANKTGLHMCDGRSPTPDELPTCYPGDDWSGVSLREFMDCSYNLGNNRQVRMLADLSLVGCYNLTFMNESERNTILLQSAKNNLKNMAFFGLTEFQRKTQFLFERTFNLKFISPFTQFNITRASNVDINDGARQHIEELNFLDMQLYEYAKDLFQQRYHHTKQLEHQRDRQKRREERRLQREHRAHRWPKEDRAMEGTVTEDYNSQVVRW	confirm the presence of N,2,6-HS products
SEQ ID NO: 61: full-length mutant of isoform 3 of the mouse 6OST enzyme, SEQ ID NO: 22 mutations (protein, Amino acid sequence encoding for engineered arylsulfate-dependent 6-O-sulfotransferase variant 13) MDERFNKWLLTPVLTLLFVVIMYQYVSPSCTSSCTNFGEQLRSGEARPPAVPSPARRAQAPLDEWERRPQLPPPPRGPPEGSRGVAAPEDEDEDPGDPEEEEEEEEEEPDPEAPENGSLPRFVPRFNFTLKDLTRFVDFNIKGRDVIVFLHIGHTGGTTFGRHLVKNIRLEQPCSCKAGQKKCTCHRPGKKETWLFSRFSTGWSCGSHADWTELTNCVPAIMEKKDCPRNHSHTRNFYYITMLRDPVSRYLSGWKHHQRGGANKTSLHMCDGRSPTPDELPTCYPGDDWSGVSLREFMDCSYNLGNNRQVRMLADLSLVGCYNLTFMNESERNTILLQSAKNNLKNMAFFGLTEFQRKTQFLFERTFNLKFISPFTQFNITRASNVDINDGARQHIEELNFLDMQLYEYAKDLFQQRYHHTKQLEHQRDRQKRREERRLQREHRAHRWPKEDRAMEGTVTEDYNSQVVRW	confirm the presence of N,2,6-HS products
